Data published in IntAct's records for PubMed 31515488.

B1: Guanine nucleotide exchange factor for Rab-3A (Homo sapiens), Q8TBN0 (parent)
chain: MWSGPPQPDQGLPPPLAAVPVPWKSTDPCQGHRESPGALVETSAGEEAQGQEGPAAAQLDVLRLRSSSMEIREKGSEFLKEELHRAQKELKLKDEECERLSKVREQLEQELEELTASLFEEAHKMVREANMKQAASEKQLKEARGKIDMLQAEVTALKTLVITSTPASPNRELHPQLLSPTKAGPRKGHSRHKSTSSTLCPAVCPAAGHTLTPDREGKEVDTILFAEFQAWRESPTLDKTCPFLERVYREDVGPCLDFTMQELSVLVRAAVEDNTLTIEPVASQTLPTVKVAEVDCSSTNTCALSGLTRTCRHRIRLGDSKSHYYISPSSRARITAVCNFFTYIRYIQQGLVRQDAEPMFWEIMRLRKEMSLAKLGFFPQEA
B2: Hematopoietic prostaglandin D synthase (Homo sapiens), O60760 (parent)
chain: MPNYKLTYFNMRGRAEIIRYIFAYLDIQYEDHRIEQADWPEIKSTLPFGKIPILEVDGLTLHQSLAIARYLTKNTDLAGNTEMEQCHVDAIVDTLDDFMSCFPWAEKKQDVKEQMFNELLTYNAPHLMQDLDTYLGGREWLIGNSVTWADFYWEICSTTLLVFKPDLLDNHPRLVTLRKKVQAIPAVANWIKRRPQTKL
partner: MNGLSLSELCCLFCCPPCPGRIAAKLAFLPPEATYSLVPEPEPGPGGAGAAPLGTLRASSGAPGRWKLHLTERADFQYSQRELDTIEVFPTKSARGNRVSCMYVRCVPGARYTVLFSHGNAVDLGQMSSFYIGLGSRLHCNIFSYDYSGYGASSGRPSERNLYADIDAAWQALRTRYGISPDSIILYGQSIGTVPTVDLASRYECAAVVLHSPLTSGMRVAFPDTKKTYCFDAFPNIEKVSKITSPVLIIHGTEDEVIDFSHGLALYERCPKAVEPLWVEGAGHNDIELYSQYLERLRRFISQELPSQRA
B3: Tripartite motif-containing protein 10 (Homo sapiens), Q9UDY6 (parent)
chain: MASAASVTSLADEVNCPICQGTLREPVTIDCGHNFCRACLTRYCEIPGPDLEESPTCPLCKEPFRPGSFRPNWQLANVVENIERLQLVSTLGLGEEDVCQEHGEKIYFFCEDDEMQLCVVCREAGEHATHTMRFLEDAAAPYREQIHKCLKCLRKEREEIQEIQSRENKRMQVLLTQVSTKRQQVISEFAHLRKFLEEQQSILLAQLESQDGDILRQRDEFDLLVAGEICRFSALIEELEEKNERPARELLTDIRSTLIRCETRKCRKPVAVSPELGQRIRDFPQQALPLQREMKMFLEKLCFELDYEPAHISLDPQTSHPKLLLSEDHQRAQFSYKWQNSPDNPQRFDRATCVLAHTGITGGRHTWVVSIDLAHGGSCTVGVVSEDVQRKGELRLRPEEGVWAVRLAWGFVSALGSFPTRLTLKEQPRQVRVSLDYEVGWVTFTNAVTREPIYTFTASFTRKVIPFFGLWGRGSSFSLSS
partner: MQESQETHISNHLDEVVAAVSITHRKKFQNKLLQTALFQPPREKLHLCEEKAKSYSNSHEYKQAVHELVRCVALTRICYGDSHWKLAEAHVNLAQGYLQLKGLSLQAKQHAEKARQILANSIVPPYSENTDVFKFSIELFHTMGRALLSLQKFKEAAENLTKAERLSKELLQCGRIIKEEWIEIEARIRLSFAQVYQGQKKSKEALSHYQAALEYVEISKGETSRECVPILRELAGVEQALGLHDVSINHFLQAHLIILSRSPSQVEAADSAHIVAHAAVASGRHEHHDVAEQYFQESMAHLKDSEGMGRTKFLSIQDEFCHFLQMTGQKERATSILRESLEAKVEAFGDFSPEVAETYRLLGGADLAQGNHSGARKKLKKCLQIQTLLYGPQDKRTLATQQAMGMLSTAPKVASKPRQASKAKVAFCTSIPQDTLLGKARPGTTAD
B4: Activated CDC42 kinase 1 (Homo sapiens), Q07912-2 (parent)
chain: MQPEEGTGWLLELLSEVQLQQYFLRLRDDLNVTRLSHFEYVKNEDLEKIGMGRPGQRRLWEAVKRRKALCKRKSWMSKVFSGKRLEAEFPPHHSQSTFRKTSPAPGGPAGEGPLQSLTCLIGEKDLRLLEKLGDGSFGVVRRGEWDAPSGKTVSVAVKCLKPDVLSQPEAMDDFIREVNAMHSLDHRNLIRLYGVVLTPPMKMVTELAPLGSLLDRLRKHQGHFLLGTLSRYAVQVAEGMGYLESKRFIHRDLAARNLLLATRDLVKIGDFGLMRALPQNDDHYVMQEHRKVPFAWCAPESLKTRTFSHASDTWMFGVTLWEMFTYGQEPWIGLNGSQILHKIDKEGERLPRPEDCPQDIYNVMVQCWAHKPEDRPTFVALRDFLLEAQPTDMRALQDFEEPDKLHIQMNDVITVIEGRAENYWWRGQNTRTLCVGPFPRNVVTSVAGLSAQDISQPLQNSFIHTGHGDSDPRHCWGFPDRIDECPFSAFSPGHPPAETCGQVLWTGRREACASDPRLHPVSSRTKGL
partner: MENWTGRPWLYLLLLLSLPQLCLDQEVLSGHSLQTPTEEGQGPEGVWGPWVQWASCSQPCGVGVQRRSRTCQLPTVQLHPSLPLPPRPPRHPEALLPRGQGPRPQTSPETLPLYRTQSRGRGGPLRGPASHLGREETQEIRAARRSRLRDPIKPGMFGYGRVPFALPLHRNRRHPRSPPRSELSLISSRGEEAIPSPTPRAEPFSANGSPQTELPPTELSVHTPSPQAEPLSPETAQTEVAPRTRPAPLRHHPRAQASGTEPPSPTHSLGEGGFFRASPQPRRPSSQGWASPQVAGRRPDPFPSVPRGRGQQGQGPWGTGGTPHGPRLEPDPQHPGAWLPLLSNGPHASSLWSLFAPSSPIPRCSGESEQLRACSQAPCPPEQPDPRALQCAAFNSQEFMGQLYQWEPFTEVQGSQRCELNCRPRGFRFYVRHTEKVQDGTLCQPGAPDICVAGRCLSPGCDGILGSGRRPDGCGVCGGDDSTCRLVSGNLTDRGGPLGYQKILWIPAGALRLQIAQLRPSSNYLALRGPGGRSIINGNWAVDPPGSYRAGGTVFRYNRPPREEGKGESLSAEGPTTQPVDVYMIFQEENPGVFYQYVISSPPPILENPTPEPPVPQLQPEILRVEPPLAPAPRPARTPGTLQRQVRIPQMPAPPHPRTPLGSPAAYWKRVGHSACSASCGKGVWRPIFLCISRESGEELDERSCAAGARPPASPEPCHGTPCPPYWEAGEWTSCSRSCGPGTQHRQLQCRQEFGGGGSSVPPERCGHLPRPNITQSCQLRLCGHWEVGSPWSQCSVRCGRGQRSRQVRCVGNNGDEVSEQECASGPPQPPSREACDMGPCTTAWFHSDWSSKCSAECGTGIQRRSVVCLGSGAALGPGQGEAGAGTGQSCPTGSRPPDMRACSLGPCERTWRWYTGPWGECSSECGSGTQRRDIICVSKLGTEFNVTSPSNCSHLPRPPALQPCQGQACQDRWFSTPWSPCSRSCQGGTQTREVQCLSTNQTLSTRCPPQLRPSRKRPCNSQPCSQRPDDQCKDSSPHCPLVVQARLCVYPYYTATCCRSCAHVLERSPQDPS
B5: Cyclin-D1-binding protein 1 (Homo sapiens), O95273 (parent)
chain: MASATAPAAAVPTLASPLEQLRHLAEELRLLLPRVRVGEAQETTEEFNREMFWRRLNEAAVTVSREATTLTIVFSQLPLPSPQETQKFCEQVHAAIKAFIAVYYLLPKDQGITLRKLVRGATLDIVDGMAQLMEVLSVTPTQSPENNDLISYNSVWVACQQMPQIPRDNKAAALLMLTKNVDFVKDAHEEMEQAVEECDPYSGLLNDTEENNSDNHNHEDDVLGFPSNQDLYWSEDDQELIIPCLALVRASKACLKKIRMLVAENGKKDQVAQLDDIVDISDEISPSVDDLALSIYPPMCHLTVRINSAKLVSVLKKALEITKASHVTPQPEDSWIPLLINAIDHCMNRIKELTQSELEL
partner: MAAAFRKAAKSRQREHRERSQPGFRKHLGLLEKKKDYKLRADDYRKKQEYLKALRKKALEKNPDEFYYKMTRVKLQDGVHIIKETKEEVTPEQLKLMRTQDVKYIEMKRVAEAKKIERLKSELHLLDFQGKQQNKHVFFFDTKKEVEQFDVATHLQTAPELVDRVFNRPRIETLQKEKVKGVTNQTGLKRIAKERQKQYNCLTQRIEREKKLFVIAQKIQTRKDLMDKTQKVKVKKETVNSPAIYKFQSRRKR
B6: Probable RNA-binding protein 46 (Homo sapiens), Q8TBY0 (parent)
chain: MNEENIDGTNGCSKVRTGIQNEAALLALMEKTGYNMVQENGQRKFGGPPPGWEGPPPPRGCEVFVGKIPRDMYEDELVPVFERAGKIYEFRLMMEFSGENRGYAFVMYTTKEEAQLAIRILNNYEIRPGKFIGVCVSLDNCRLFIGAIPKEKKKEEILDEMKKVTEGVVDVIVYPSATDKTKNRGFAFVEYESHRAAAMARRKLIPGTFQLWGHTIQVDWADPEKEVDEETMQRVKVLYVRNLMISTTEETIKAEFNKFKPGAVERVKKLRDYAFVHFFNREDAVAAMSVMNGKCIDGASIEVTLAKPVNKENTWRQHLNGQISPNSENLIVFANKEESHPKTLGKLPTLPARLNGQHSPSPPEVERCTYPFYPGTKLTPISMYSLKSNHFNSAVMHLDYYCNKNNWAPPEYYLYSTTSQDGKVLLVYKIVIPAIANGSQSYFMPDKLCTTLEDAKELAAQFTLLHLDYNFHRSSINSLSPVSATLSSGTPSVLPYTSRPYSYPGYPLSPTISLANGSHVGQRLCISNQASFF
B7: Keratin, type I cytoskeletal 13 (Homo sapiens), P13646 (parent)
chain: MSLRLQSSSASYGGGFGGGSCQLGGGRGVSTCSTRFVSGGSAGGYGGGVSCGFGGGAGSGFGGGYGGGLGGGYGGGLGGGFGGGFAGGFVDFGACDGGLLTGNEKITMQNLNDRLASYLEKVRALEEANADLEVKIRDWHLKQSPASPERDYSPYYKTIEELRDKILTATIENNRVILEIDNARLAADDFRLKYENELALRQSVEADINGLRRVLDELTLSKTDLEMQIESLNEELAYMKKNHEEEMKEFSNQVVGQVNVEMDATPGIDLTRVLAEMREQYEAMAERNRRDAEEWFHTKSAELNKEVSTNTAMIQTSKTEITELRRTLQGLEIELQSQLSMKAGLENTVAETECRYALQLQQIQGLISSIEAQLSELRSEMECQNQEYKMLLDIKTRLEQEIATYRSLLEGQDAKMIGFPSSAGSVSPRSTSVTTTSSASVTTTSNASGRRTSDVRRP
partner: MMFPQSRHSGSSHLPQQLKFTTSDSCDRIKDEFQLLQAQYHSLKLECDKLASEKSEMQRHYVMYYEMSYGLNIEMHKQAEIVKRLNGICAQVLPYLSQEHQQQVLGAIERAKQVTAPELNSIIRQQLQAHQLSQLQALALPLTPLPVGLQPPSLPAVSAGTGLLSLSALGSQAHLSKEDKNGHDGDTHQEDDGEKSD

Variants of: B1
Details: with rb11a_human RAB11A

effect of a mutation on the interaction	Variant
with no effect	H323Y

Variants of: B2
Details: with ab17a_human ABHD17A

effect of a mutation on the interaction	Variant
disrupting interaction strength	M128T

Variants of: B3
Details: with ttc23_human TTC23, Q5W5X9

effect of a mutation on the interaction	Variant
with no effect	Q210L
with no effect	D30N
with no effect	R216K
disrupting interaction strength	I236T
with no effect	Q161E

Variants of: B4
Details: with atl4_human ADAMTSL4, Q6UY14

effect of a mutation on the interaction	Variant
with no effect	R34L

Variants of: B5
Details: with utp11_human UTP11, Q9Y3A2

effect of a mutation on the interaction	Variant
disrupting interaction strength	I277T

Variants of: B6
Details: with rbpms_human RBPMS

effect of a mutation on the interaction	Variant
with no effect	I126M

Variants of: B7
Details: with tle5_human TLE5, Q08117

effect of a mutation on the interaction	Variant
with no effect	R355H
